Measurements from patent publication US20050113256A1, “Methods of reducing the nicotine content of tobacco plants and tobacco plants obtained thereby” (priority 2003, published 2005).

Test system: tobacco leaves (Nicotiana tabacum)
Assay: Treatment of individual tobacco leaves with test solutions, nicotine reduction
Assay type: in vivo
Conditions: incubated for about 3 days

B1: Inactive GOX: heat treated glucose oxidase, rendered substantially inactive due to the application of heat (protein, UniProt P13006 17-605, looked up)
Glucose oxidase: LPHYIRSNGIEASLLTDPKDVSGRTVDYIIAGGGLTGLTTAARLTENPNISVLVIESGSYESDRGPIIEDLNAYGDIFGSSVDHAYETVELATNNQTALIRSGNGLGGSTLVNGGTWTRPHKAQVDSWETVFGNEGWNWDNVAAYSLQAERARAPNAKQIAAGHYFNASCHGVNGTVHAGPRDTGDDYSPIVKALMSAVEDRGVPTKKDFGCGDPHGVSMFPNTLHEDQVRSDAAREWLLPNYQRPNLQVLTGQYVGKVLLSQNGTTPRAVGVEFGTHKGNTHNVYAKHEVLLAAGSAVSPTILEYSGIGMKSILEPLGIDTVVDLPVGLNLQDQTTATVRSRITSAGAGQGQAAWFATFNETFGDYSEKAHELLNTKLEQWAEEAVARGGFHNTTALLIQYENYRDWIVNHNVAYSELFLDTAGVASFDVWDLLPFTRGYVHILDKDPYLHHFAYDPQYFLNELDLLGQAAATQLARNISNSGAMQTYFAGETIPGDNLAYDADLSAWTEYIPYHFRPNYHGVGTCSMMPKEMGGVVDNAARVYGVQGLRVIDGSIPPTQMSSHVMTVFYAMALKISDAILEDYASMQ
modifications: heat-inactivated
Reduction of Nicotine: 0.1 mg/g
